Test: yeast display, Sf9 membrane polyspecificity reagent, FACS + sequencing; frameworks hold sequencing errors
How it was run: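 Galactose induction of a Saccharomyces cerevisiae BJ5465 synthetic nanobody display library ran 36–48 hours. The cells were then stained for 1 hour at 4 °C with 10% biotinylated, detergent-solubilized Sf9 membrane reagent, pulled down on streptavidin microbeads and FACS-sorted into low and high (top ~1%) gates on expression and reagent-binding fluorescence. Labels for polyreactivity follow the gate of origin.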

Sequence	polyreactivity (PSR sort gate)
QVQLVESGGGLVQAGGSLRLSCAASGLTFFRNAMGWYRQAPGKEREFVAGITSTDGSTYYADSVKGRFTISRDNAKNTVYLQMNSLKPEDTAVYYCAAAYRVRGRTYDAWGQGTQVTVSS	high polyreactivity
QVQLGESGGGLVQAGGSLRLSCAASGRTFPYNAMGWYRQAPGKERELVAAISSGGSTNYADSVKGRFTISRDNAKNTVYLQMNSLKQEDTAVYYCAVTGWPRYTWYSYGYWGQGTQVTLSS	low polyreactivity
QVQLVESAAGLVQAGGSLRLSSAASGSIFGPYAMGWYRQAPGKERELVAVISSGDSTNYADSVKGRFTISRDNAKNTVYLQMNSLKPEDTAVYYCATRYLLYRGGHSLFYHFDYWGQGTQVTVSS	low polyreactivity
QVQHEESGGGLVQAGGSLRLSCAASGRIFHFNTMGWYRQAPGKERELVAAITSSGGSTNYADSVKGRFTISRDNAKNTVYLQMNSLKPEDTAVYYCNADTGAADYFDFDYWGQGTQVTVSS	low polyreactivity
QVQLVESGGGVVQAGGSLRLSCAASGFIFGYYATGWYRQAPGKERELVDAFTRSGGSTRYADSVKGRFTISRDNAKNTVYLHMNSLKPEDSAVYYCNAYAPRQLYGYDYWGQGTQVTVSS	high polyreactivity
QVQLVESGGGLVQAGGSLRLSCAASGSTFTYNAMGWYRQAPGTERELVAAISDGDGRTYYADSVKGRFTISRDNAKNTVYLQMNSLKPEDTAVYYCAAVDYAADYPYRNTEVYYWGQGTQVTVSS	low polyreactivity
QVHLVESGGGLVLAGGSLRLSCAASVRIYTRNVMGWYRQAPGKERELVAAISTSGGSTFYADSVKGRFTISRDNAKNTVYLQMNSLKPEDTAVYYCAKRRYGKLEYWGQGTQVTVSS	high polyreactivity
QVQLVESGGGLVQAGGSLRLSCAASGRTFYPNTMGWYRQAPGKERELVATITRSGGNTYADSVKGRFTISRDNAKNTVYLQMNSLKREDTAVYYCNADQRRSYWLVSQRYDYWGQGTQVTVSS	low polyreactivity
QVQLVESGGGLVQAGGSLRLSCAASGSIFEVYAMGWYRQAPGKDRELVAAITSSDITYYADSVKGRFTISRDNAKNTVYLQMNSLKPEDRAVFYCNAEPPYRVKRSDYWGQGTQVTVSS	low polyreactivity
QVQLVESGGGLVQAGGSLRLSCAASGLTFTQYAMGWYRQAPGKERELVAAITSGGRTYYADSVKGRFTISRDNAKNTVYLQMNSLKPEDTAVYYCAADRRYVDAYHFGYWGQGTQVTVSS	high polyreactivity
QVQLVESGGGLVQAGGSLRLSCAASGSIFIQYAMGWYRQAPGKERELVAAITSGDDTYYADSVKGRFTISRDNAKNTVYLQMNSLKPEDTAVYYCAKRAHFSSARHVYYIYDYWGQGTQVTVSS	low polyreactivity
QVQLVESGGGLVQAGGSLRLSCAASGRIFGVNARGWYRQAPGKERELVATITRGGNTNYADSVKGRFTISRDNAKNTVYLQMNSLKPEDTAVYYCNADRYRTFSRLPYGEYEYWGQGTQVTVSS	low polyreactivity
QVQLVESGGGLVQAGGSLRVSCAASGFIFSYNAMGWYRQEPGKERELVAAMSSGGGSTYYADSVKGRFTISRDNAKNTVYLQMNSLKPEDTAVSYCAARVAYTFGYWGQGTQVTVSS	high polyreactivity
QVQLVESGGGLVQAGGSLRLSCAASGSTFSEKAMGWYRQAPGKERELVAAISRRGGSTYYADSVKGRFTISRDNAKNTVYYQMNSLKPEDTAVYYCNVVNSGSFDYDYWGQGTPVTVSS	high polyreactivity
QVQRVESGGGLVQAGGSLRLSCAASGRIFRYYAMGWYRQAPGKERELVAAISRSSGSTYYADSVKGRFTISRDNAKNTVYLQMNSLKPEDTAVYYCATAFYSYGRYPQSYYWGQGTQVTVSS	high polyreactivity
QVQLVESGGGLVQAGGSLRLSCAASGRTFYGYVMGWYRQAPGQERELVAAISRSVGSTYYADSVKGRFTISRDNAKNTVYLQMNSLKPEDTAVYYCATSVYGGVDYWGQGTQVTVSS	high polyreactivity
QLQLVESGGGLVQAGGSLRLSCAATGYISNAMGWYRQPPGKERELVAAISRSGGSTYYADSVKGRFTISRDNAKNTVYLQMNSLKPEDTAVYYCAADYTYHDRRLDYWGQGTQVTVSS	low polyreactivity
QVQLVESGGGLVQAGGSLRLSCAASGSIFKANAMGWYRQAPGKERELVATISTSSGGTYYADSVKGRFTISRDNAKNTVYLQMNSLKPEDTAVYYCAALTYPPFYWGQGTQVTVSS	high polyreactivity
QVQLVESAGGLVQAGGSLRLSCAASGRILFGYAMGWYRQAPGKERELVADITSTGSTNYADSVKGRFTISRDNAKNTVYLQMNSLKPEDTAVYYCNVDDTSWTTSGGRFGQVESDYWGQGTQVTVSS	low polyreactivity
QVQLVESAGGLVQAGGSLRLSCAASGSIFGSYAMGGYRQAPGKERELVAAIYSSGGSTYYADSVKGRFTISRDNAKNTVYLQMNSLKPEDTAVYYCNKYVRYGDGYWGQGTQVTVSS	high polyreactivity
QVQLVESGGGLVQAGGSLRLSCAASGSIFIWYTMGWYRQAPGKERELVAAIDWNSGSTYYADSVKGRFTISRDNAKNTVYLQMNSLKPEDTAVYYCAATTFSGWFIFYYWGQGTQVTVSS	low polyreactivity
QVQLVESGGGLVQAGGSLRLSCAASGSTFRYNAMGWYRQAPGKERELVASISGSGGGTYYADSVKGRFTISRDNAKNTVYLQMNSLKPEDTAVYYCAADAGAFYFGGDYWGQGTQVTVSS	low polyreactivity

Sequence	polyreactivity (PSR sort gate)
QVQLVESGGGLVHAGGSLRLSCSASGRTFRHYAMGWYRQAPGKEREMVAVISWRGTGTYYADSVKGRFTISRDNAKNTVYLQMNSLKPEDTAVYYCATVWGLGYRMNYWGQGTQVTVSS	high polyreactivity
QVQLVESGGGLVQAGGSLRLSCAASGFTFRYYVMGWYRQAPGKERELVATITWGGGSTYYADSVKGRFTISRDNAKNTVYLQMNSLKPEDPAVYYCAASLKWGRGVLARVLWYNYWGQGTQVTVSS	low polyreactivity
QVQLVESGGGLVQAGGSLRLSCAASGFIFRYYAMGWYRPAPGKERELVATISSGGGTHYADSVKGRFTISRDNAKNTVYLQMNSLKPEDAAVYYCNARGYRRLRTRVDYWGQGTQVTVSS	high polyreactivity
QVQLVESGGGLVQAGGSLRLSCASSGSTIYYNAMGWYRQAPGKERELVAAISNAGSTYYADSVKGRFTISRDNAENTVYLQMNSLKPEDTAVYYCAKRFRGITYSYYYWGQGTQVTVSS	high polyreactivity
QVQLVESGGGLVQAGGSLRLTCAASGRIFWSYAMGWYRQAPGKERELVARITTGSSTNYADSVKGRFTISRDNAKNTVYLQMNSLKPEDTAVYYCAADVSNYYFAYYYWGQGTQVTVSS	low polyreactivity
QVQLVESGGGLVQAGGSLRLICAASGITFPINTKGWYRQAPGKERELVAGIDWTGGSTYYADSVKGRFTISRDNAKNTVYLQMNSLKPEDTAVYYCAAEFFREGSPRAGSKMDYWGQGTQVTVSS	low polyreactivity
QVQLVESGGGLVQAGGSLRLSCAASGRIFGGNAMGWYRQAPGKECELVAAISKGGGSTNYADSVKGRFTISRDNAKNTVYLQMNSLKPEDTAVYYCAAVVSAHADDVDYWGQGTQVTVSS	high polyreactivity
QVQLVESGGGLVQAGGSLRLSCAASGIIFYSYAMGWYRQAPGKERELVATISFSGDNTYYADSVKGRFTISRDNAKNTVYLQMNSLKPEDTAVYYCAAASTYGGYYYSVSFEYWGQGTQVTVSS	low polyreactivity
QDQLVESGGGLVQAGGSLRLSCAASGSIFNPYAMGWYRQAPGKERELVAAITSGGYTYADSVKGRFTISRDNAKNTVYLQMNSLKPEDTAVYYCAADRSYVYAGADMYYWGQGTQVTVSS	low polyreactivity
QVQLVESGGGLVQAGGSLRLSCAASGRILGKNTMGWYRQAPGKEREFVAAISASGGRTYYADSVKGRFTISRDNAKYTVYLQMNSLKPEDTAVYYCAAARSRYSYATGFDYWGQGTQVTVSS	high polyreactivity
QVQLVESGGGLVQAGGSLRLSCAASGYTFVNYAMGWYRQAPGKEREFVAAISRSGGSTYYADSVKGRFTISRDNAKNTVYLQMNSLKPEDTAVYYCALRGYPPYNYYYWGQGTQVTVSS	high polyreactivity
QVQLQESGGGLVQAGGSLRLSCAQSGTICGWDRMGRYRQAPGKERELVATIDNRGSTNYADSVKGRFTISRDNANNTVYPQKISLKPDDTAVDYCAVVGPTPQYHLYWGQGTQVTVCS	high polyreactivity
QVQLVESGGGLVQAGGSLRLSCAASGIIFLRNTMGWYRQAPGKERELVASISRRGGSTYYADSVKGRFTISRDNAKNTVYLQMNSLKPEDTAVYYCNKRSLEKGDYWGQGTQVTVTS	high polyreactivity
QVQLQVSGGDLVQAGGSLRMSCAASGTIYGLTSMGWNRQAPGKEREFVAAITDGGNTNYADSVKGRFTISRDNAKNTVYLQMISLKPEDTAVFYCAVLFSDDAYYAYWGQGTQVNVSS	low polyreactivity
QVQLVESGGGLVQAGGSLRLSCAASGGTFGSYAMGWYRQAPAKERELVAAIRSGDRTYYADSVKGRFTISRDNAKNTDYLQMNSLKPEHTAVDYCAAFYHHYYRYDYWGQGTQVTVSS	low polyreactivity
QVQLVESGGGLVQAGGSLRLSCAASGRIFTLYDMGWYRQAPGKERELVAAISNSAGSTYYADSVKGRFTISRDNAKNTVYLQMNSLKPEDTAVYYCAAELWSWWGSRDYWGQGTQVTVSS	high polyreactivity
QVQLVESGGGLVQAGGSLRLSCAASGIILSAYAMGWYRQAPGKERELVARISRSGGRTYYADSVKGRFTISRDNAKNTVYLQMNSLKPEDTAVYYCAADYTYGFGLYFGYGYWRQGTQVTVSS	high polyreactivity
QVQLVESRGGLVQAGGSLRLSCAASGITFRYYAMGWYRQEPGKERELVAAINRGGDSTYYADSVKGRFTISRDIAKNTVYLQMNSLKPVDTAVYYCAASSSNKEYDYWGLGTQVTVSS	high polyreactivity
QVQLVDSGGGLVQAGGSLRLSCAASGITFWWYAMGWSRPAPGKEREVVAAISQRGGTYYADSVKGRFTISRDKAKNTVFLQMKSLKPDDTAVDSCAAVVYSRYAPYSAQYDDWGQGTQVTVSS	high polyreactivity
QVQLLESVGGLVQAGGSLRLSCDASGYTYCGYAMGSYRQAPGKERELVAAISRSGGSTYYADTVKGRFTISRDHAKNTVYLQMNSLKPEDTAVYYCNARTEDYDGANNYWGHGTQVTVSS	low polyreactivity
QVQLEESGGGLVQAGGSLRLSCAASGLTFYSYAMGWYRQAPGKERELVAGINYSGDSTHYADSVKGRFTISRDNAKNTVYLQMNSLKPEDTAVYYCASQTFVYRKELLSRYEYWGQGTQVTVSS	high polyreactivity
